Laboratory results from the supplement of paper PMC5998384.

Experiments:
HeLa Kyoto [1] = test: melting temperature (median over replicates), in situ; higher = more thermally stable
HeLa Kyoto [2] = test: solubility change mitosis vs G1/S (difference of NP-40 vs SDS log2 ratios) (log2 ratio difference); higher = more soluble in mitosis
HeLa Kyoto [3] = test: solubility in G1/S (NP-40 vs SDS abundance) (log2 ratio); higher = more soluble; details: cell cycle stage: G1/S
HeLa Kyoto [4] = test: thermal stability score vs G1/S (z-score of summed log2 fold changes over temperatures); higher = more thermally stable than in G1/S
[5] = cell cycle stage: early G1 (4.5 h after nocodazole release)
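For melting temperature (median over replicates), in situ in this document: HeLa Kyoto cells synchronized by double thymidine or nocodazole block, proteins quantified by TMT10plex mass spectrometry, three independent biological replicates.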
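For solubility change mitosis vs G1/S (difference of NP-40 vs SDS log2 ratios) in this document: synchronized HeLa Kyoto cells (double thymidine block for G1/S, nocodazole release for mitosis), protein amounts in NP-40 versus SDS lysates quantified by mass spectrometry, three biological replicates.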
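For solubility in G1/S (NP-40 vs SDS abundance) in this document: HeLa Kyoto cells arrested at G1/S by double thymidine block, proteins quantified by TMT10plex mass spectrometry in mild NP-40 versus SDS extracts, three biological replicates.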
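For thermal stability score vs G1/S (z-score of summed log2 fold changes over temperatures) in this document: synchronized HeLa Kyoto cells, proteins quantified by TMT10plex mass spectrometry, three biological replicates, mitosis taken 0.5 h after nocodazole release, G1/S directly after double thymidine block.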

Chain of SDHA (chain, as listed by the source): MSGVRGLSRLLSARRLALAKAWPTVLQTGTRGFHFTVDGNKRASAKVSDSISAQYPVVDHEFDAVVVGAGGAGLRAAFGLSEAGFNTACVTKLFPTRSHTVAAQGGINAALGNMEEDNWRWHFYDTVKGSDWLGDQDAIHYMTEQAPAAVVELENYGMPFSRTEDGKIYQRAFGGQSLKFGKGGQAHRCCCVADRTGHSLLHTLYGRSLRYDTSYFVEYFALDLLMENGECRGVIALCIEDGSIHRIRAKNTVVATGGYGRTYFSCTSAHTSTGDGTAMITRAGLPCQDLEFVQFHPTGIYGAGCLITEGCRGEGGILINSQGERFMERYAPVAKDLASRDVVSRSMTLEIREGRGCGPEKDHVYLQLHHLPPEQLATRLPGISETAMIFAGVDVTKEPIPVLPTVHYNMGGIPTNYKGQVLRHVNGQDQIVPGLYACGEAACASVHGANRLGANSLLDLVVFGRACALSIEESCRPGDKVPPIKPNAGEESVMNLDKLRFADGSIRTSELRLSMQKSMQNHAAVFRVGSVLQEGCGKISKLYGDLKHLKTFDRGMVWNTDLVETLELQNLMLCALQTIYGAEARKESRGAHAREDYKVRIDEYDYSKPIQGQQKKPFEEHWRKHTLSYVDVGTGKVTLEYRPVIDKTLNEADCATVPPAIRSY

Substance | melting temperature (HeLa Kyoto [1]; cell cycle stage: G1/S) | melting temperature (HeLa Kyoto [1]; cell cycle stage: mitosis) | solubility change mitosis (log2) (HeLa Kyoto [2]) | solubility in G1/S (log2) (HeLa Kyoto [3]) | thermal stability score (HeLa Kyoto [4]; [5]) | thermal stability score (HeLa Kyoto [4]; cell cycle stage: mitosis)
MGTKAQVERKLLCLFILAILLCSLALGSVTVHSSEPEVRIPENNPVKLSCAYSGFSSPRVEWKFDQGDTTRLVCYNNKITASYEDRVTFLPTGITFKSVTREDTGTYTCMVSEEGGNSYGEVKVKLIVLVPPSKPTVNIPSSATIGNRAVLTCSEQDGSPPSEYTWFKDGIVMPTNPKSTRAFSNSSYVLNPTTGELVFDPLSASDTGEYSCEARNGYGTPMTSNAVRMEAVERNVGVIVAAVLVTLILLGILVFGIWFAYSRGHFDRTKKGTSSKKVIYSQPSARSEGEFKQTSSFLV [F11R] | 58.9 °C | 59.5 °C | -0.139 | 0.284 | -2.07 | -2.09
MMEGLDDGPDFLSEEDRGLKAINVDLQSDAALQVDISDALSERDKVKFTVHTKSSLPNFKQNEFSVVRQHEEFIWLHDSFVENEDYAGYIIPPAPPRPDFDASREKLQKLGEGEGSMTKEEFTKMKQELEAEYLAIFKKTVAMHEVFLCRVAAHPILRRDLNFHVFLEYNQDLSVRGKNKKEKLEDFFKNMVKSADGVIVSGVKDVDDFFEHERTFLLEYHNRVKDASAKSDRMTRSHKSAADDYNRIGSSLYALGTQDSTDICKFFLKVSELFDKTRKIEARVSADEDLKLSDLLKYYLRESQAAKDLLYRRSRSLVDYENANKALDKARAKNKDVLQAETSQQLCCQKFEKISESAKQELIDFKTRRVAAFRKNLVELAELELKHAKGNLQLLQNCLAVLNGDT [SNX6] | 51.1 °C | 50.1 °C | -0.0637 | 0.426 | 1.82 | 0.524
MEVKRLKVTELRSELQRRGLDSRGLKVDLAQRLQEALDAEMLEDEAGGGGAGPGGACKAEPRPVAASGGGPGGDEEEDEEEEEEDEEALLEDEDEEPPPAQALGQAAQPPPEPPEAAAMEAAAEPDASEKPAEATAGSGGVNGGEEQGLGKREEDEPEERSGDETPGSEVPGDKAAEEQGDDQDSEKSKPAGSDGERRGVKRQRDEKDEHGRAYYEFREEAYHSRSKSPLPPEEEAKDEEEDQTLVNLDTYTSDLHFQVSKDRYGGQPLFSEKFPTLWSGARSTYGVTKGKVCFEAKVTQNLPMKEGCTEVSLLRVGWSVDFSRPQLGEDEFSYGFDGRGLKAENGQFEEFGQTFGENDVIGCFANFETEEVELSFSKNGEDLGVAFWISKDSLADRALLPHVLCKNCVVELNFGQKEEPFFPPPEEFVFIHAVPVEERVRTAVPPKTIEECEVILMVGLPGSGKTQWALKYAKENPEKRYNVLGAETVLNQMRMKGLEEPEMDPKSRDLLVQQASQCLSKLVQIASRTKRNFILDQCNVYNSGQRRKLLLFKTFSRKVVVVVPNEEDWKKRLELRKEVEGDDVPESIMLEMKANFSLPEKCDYMDEVTYGELEKEEAQPIVTKYKEEARKLLPPSEKRTNRRNNRNKRNRQNRSRGQGYVGGQRRGYDNRAYGQQYWGQPGNRGGYRNFYDRYRGDYDRFYGRDYEYNRYRDYYRQYNRDWQSYYYHHPQDRDRYYRNYYGYQGYR [HNRNPUL2] | 49.2 °C | 50.1 °C | 0.258 | -0.462 | 0.965 | 3.42
MGST3 | 56.3 °C | 55.7 °C | 0.0779 | -0.272 | -2.44 | -4.93
MATKARVMYDFAAEPGNNELTVNEGEIITITNPDVGGGWLEGRNIKGERGLVPTDYVEILPSDGKDQFSCGNSVADQAFLDSLSASTAQASSSAASNNHQVGSGNDPWSAWSASKSGNWESSEGWGAQPEGAGAQRNTNTPNNWDTAFGHPQAYQGPATGDDDDWDEDWDGPKSSSYFKDSESADAGGAQRGNSRASSSSMKIPLNKFPGFAKPGTEQYLLAKQLAKPKEKIPIIVGDYGPMWVYPTSTFDCVVADPRKGSKMYGLKSYIEYQLTPTNTNRSVNHRYKHFDWLYERLLVKFGSAIPIPSLPDKQVTGRFEEEFIKMRMERLQAWMTRMCRHPVISESEVFQQFLNFRDEKEWKTGKRKAERDELAGVMIFSTMEPEAPDLDLVEIEQKCEAVGKFTKAMDDGVKELLTVGQEHWKRCTGPLPKEYQKIGKALQSLATVFSSSGYQGETDLNDAITEAGKTYEEIASLVAEQPKKDLHFLMECNHEYKGFLGCFPDIIGTHKGAIEKVKESDKLVATSKITLQDKQNMVKRVSIMSYALQAEMNHFHSNRIYDYNSVIRLYLEQQVQFYETIAEKLRQALSRFPVM [SNX9] | 49.9 °C | 49.3 °C | -0.0298 | -0.0383 | -0.198 | 0.732
CENPF | 48.9 °C | 49.7 °C | 0.109 | -0.00455 | 2.12 | 0.418
TOP2B | 52.2 °C | 51.6 °C | 0.675 | -2.12 | 0.414 | 1.45
SDHA | 54.7 °C | 56.4 °C | -0.0448 | -0.11 | 1.89 | 2.23
MADEELEALRRQRLAELQAKHGDPGDAAQQEAKHREAEMRNSILAQVLDQSARARLSNLALVKPEKTKAVENYLIQMARYGQLSEKVSEQGLIEILKKVSQQTEKTTTVKFNRRKVMDSDEDDDY [PDCD5] | 54.3 °C | 52.3 °C | 0.568 | -0.112 | -5.9 | -7.32
MVMAYFVENFWGEKNSGFDVLYHNMKHGQISTKELADFVRERATIEEAYSRSMTKLAKSASNYSQLGTFAPVWDVFKTSTEKLANCHLDLVRKLQELIKEVQKYGEEQVKSHKKTKEEVAGTLEAVQTIQSITQALQKSKENYNAKCVEQERLKKEGATQREIEKAAVKSKKATDTYKLYVEKYALAKADFEQKMTETAQKFQDIEETHLIHIKEIIGSLSNAIKEIHLQIGQVHEEFINNMANTTVESLIQKFAESKGTGKERPGLIEFEECDTASAVEGIKPRKRKTFALPGIIKKEKDAESVECPDADSLNIPDVDEEGYSIKPETNQNDTKENHFYSSSDSDSEDEEPKKYRIEIKPMHPNNSHHTMASLDELKVSIGNITLSPAISRHSPVQMNRNLSNEELTKSKPSAPPNEKGTSDLLAWDPLFGPSLDSSSSSSLTSSSSARPTTPLSVGTIVPPPRPASRPKLTSGKLSGINEIPRPFSPPVTSNTSPPPAAPLARAESSSSISSSASLSAANTPTVGVSRGPSPVSLGNQDTLPVAVALTESVNAYFKGADPTKCIVKITGDMTMSFPSGIIKVFTSNPTPAVLCFRVKNISRLEQILPNAQLVFSDPSQCDSNTKDFWMNMQAVTVYLKKLSEQNPAASYYNVDVLKYQVSSNGIQSTPLNLATYWKCSASTTDLRVDYKYNPEAMVAPSVLSNIQVVVPVDGGVTNMQSLPPAIWNAEQMKAFWKLSSISEKSENGGSGSLRAKFDLSEGPSKPTTLAVQFLSEGSTLSGVDFELVGTGYRLSLIKKRFATGRYLADC [FCHO2] | 50.9 °C | 50.9 °C | 0.0613 | -0.0326 | -0.516 | 0.0307
MSASLVRATVRAVSKRKLQPTRAALTLTPSAVNKIKQLLKDKPEHVGVKVGVRTRGCNGLSYTLEYTKTKGDSDEEVIQDGVRVFIEKKAQLTLLGTEMDYVEDKLSSEFVFNNPNIKGTCGCGESFNI [ISCA1] | 52.3 °C | 51.9 °C | -0.0859 | 0.427 | -0.782 | -2.35
MGSMFRSEEVALVQLFLPTAAAYTCVSRLGELGLVEFRDLNASVSAFQRRFVVDVRRCEELEKTFTFLQEEVRRAGLVLPPPKGRLPAPPPRDLLRIQEETERLAQELRDVRGNQQALRAQLHQLQLHAAVLRQGHEPQLAAAHTDGASERTPLLQAPGGPHQDLRVNFVAGAVEPHKAPALERLLWRACRGFLIASFRELEQPLEHPVTGEPATWMTFLISYWGEQIGQKIRKITDCFHCHVFPFLQQEEARLGALQQLQQQSQELQEVLGETERFLSQVLGRVLQLLPPGQVQVHKMKAVYLALNQCSVSTTHKCLIAEAWCSVRDLPALQEALRDSSMEEGVSAVAHRIPCRDMPPTLIRTNRFTASFQGIVDAYGVGRYQEVNPAPYTIITFPFLFAVMFGDVGHGLLMFLFALAMVLAENRPAVKAAQNEIWQTFFRGRYLLLLMGLFSIYTGFIYNECFSRATSIFPSGWSVAAMANQSGWSDAFLAQHTMLTLDPNVTGVFLGPYPFGIDPIWSLAANHLSFLNSFKMKMSVILGVVHMAFGVVLGVFNHVHFGQRHRLLLETLPELTFLLGLFGYLVFLVIYKWLCVWAARAASAPSILIHFINMFLFSHSPSNRLLYPRQEVVQATLVVLALAMVPILLLGTPLHLLHRHRRRLRRRPADRQEENKAGLLDLPDASVNGWSSDEEKAGGLDDEEEAELVPSEVLMHQAIHTIEFCLGCVSNTASYLRLWALSLAHAQLSEVLWAMVMRIGLGLGREVGVAAVVLVPIFAAFAVMTVAILLVMEGLSAFLHALRLHWVEFQNKFYSGTGYKLSPFTFAATDD [TCIRG1] | 53 °C | 54.1 °C | 0.0336 | -0.278 | -2.43 | -1.47
ILF2 | 54.6 °C | 53.3 °C | 0.0511 | -0.141 | -1.61 | -1.98
MAREMTILGSAVLTLLLAGYLAQQYLPLPTPKVIGIDLGTTYCSVGVFFPGTGKVKVIPDENGHISIPSMVSFTDNDVYVGYESVELADSNPQNTIYDAKRFIGKIFTAEELEAEIGRYPFKVLNKNGMVEFSVTSNETITVSPEYVGSRLLLKLKEMAEAYLGMPVANAVISVPAEFDLKQRNSTIEAANLAGLKILRVINEPTAAAMAYGLHKADVFHVLVIDLGGGTLDVSLLNKQGGMFLTRAMSGNNKLGGQDFNQRLLQYLYKQIYQTYGFVPSRKEEIHRLRQAVEMVKLNLTLHQSAQLSVLLTVEEQDRKEPHSSDTELPKDKLSSADDHRVNSGFGRGLSDKKSGESQVLFETEISRKLFDTLNEDLFQKILVPIQQVLKEGHLEKTEIDEVVLVGGSTRIPRIRQVIQEFFGKDPNTSVDPDLAVVTGVAIQAGIDGGSWPLQVSALEIPNKHLQKTNFN [HSPA13] | 54.6 °C | 53.3 °C | 0.00641 | 0.088 | 4.12 | 4.92
MAGSSEEAPDYGRGVVIMDDWPGYDLNLFTYPQHYYGDLEYVLIPHGIIVDRIERLAKDIMKDIGYSDIMVLCVLKGGYKFCADLVEHLKNISRNSDRFVSMKVDFIRLKSYRNDQSMGEMQIIGGDDLSTLAGKNVLIVEDVVGTGRTMKALLSNIEKYKPNMIKVASLLVKRTSRSDGFRPDYAGFEIPNLFVVGYALDYNEYFRDLNHICVINEHGKEKYRV [PRTFDC1] | 56.5 °C | 55.5 °C | -0.113 | -0.298 | -0.858 | -0.334
MDVGELLSYQPNRGTKRPRDDEEEEQKMRRKQTGTRERGRYREEEMTVVEEADDDKKRLLQIIDRDGEEEEEEEEPLDESSVKKMILTFEKRSYKNQELRIKFPDNPEKFMESELDLNDIIQEMHVVATMPDLYHLLVELNAVQSLLGLLGHDNTDVSIAVVDLLQELTDIDTLHESEEGAEVLIDALVDGQVVALLVQNLERLDESVKEEADGVHNTLAIVENMAEFRPEMCTEGAQQGLLQWLLKRLKAKMPFDANKLYCSEVLAILLQDNDENRELLGELDGIDVLLQQLSVFKRHNPSTAEEQEMMENLFDSLCSCLMLSSNRERFLKGEGLQLMNLMLREKKISRSSALKVLDHAMIGPEGTDNCHKFVDILGLRTIFPLFMKSPRKIKKVGTTEKEHEEHVCSILASLLRNLRGQQRTRLLNKFTENDSEKVDRLMELHFKYLGAMQVADKKIEGEKHDMVRRGEIIDNDTEEEFYLRRLDAGLFVLQHICYIMAEICNANVPQIRQRVHQILNMRGSSIKIVRHIIKEYAENIGDGRSPEFRENEQKRILGLLENF [CTNNBL1] | 47.6 °C | 47.7 °C | 0.207 | -0.0781 | 3.96 | 7.66
TJP1 | 49.3 °C | 50.3 °C | 0.126 | -0.366 | -0.423 | 1.4
